The supplement of paper PMC10065799, “High-throughput profiling of sequence recognition by tyrosine kinases and SH2 domains using bacterial peptide display” (eLife, 2023)

What was measured:
c-Src SH2 = test: SH2 binding enrichment of the phosphorylated peptide, bacterial display (enrichment ratio); higher = better substrate or ligand; peptides without Tyr show the background
SHP2-C SH2 = test: as above
Grb2 SH2 = Grb2 SH2 (UniProt P62993); test: as above
c-Abl (mouse) = test: phosphorylation enrichment, bacterial display (enrichment ratio); higher = better substrate or ligand; peptides without Tyr show the background
EPHB1 = EPHB1 (UniProt P54762); test: as above
MERTK = MERTK (UniProt Q12866); test: as above
Fes = Fes (UniProt P07332); test: as above
Jak2 = Jak2 (UniProt O60674); test: as above
AncSZ = test: as above
Fyn = Fyn (UniProt P06241); test: as above
FGFR1 = FGFR1 (UniProt P11362); test: as above
FGFR3 = FGFR3 (UniProt P22607); test: as above
c-Src = test: as above
Fer (mouse) = test: as above
Hck = Hck (UniProt P08631); test: as above
EPHB2 = EPHB2 (UniProt P29323); test: as above
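Wherever SH2 binding enrichment of the phosphorylated peptide, bacterial display is given: peptide library displayed on the E. coli surface as eCPX fusions, selected cells deep-sequenced, score is each peptide's frequency after selection divided by its frequency in the input.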
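Wherever phosphorylation enrichment, bacterial display is given: 11-residue human phosphosite peptides and single-mutation variants displayed on the E. coli surface, counted by deep sequencing, each peptide's frequency after selection divided by its frequency in the unselected input library; frequency after pTyr selection over input frequency; kinase dosed for 20-30% of maximal phosphorylation in three min.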

Hck, sequence (P08631 whole entry, looked up): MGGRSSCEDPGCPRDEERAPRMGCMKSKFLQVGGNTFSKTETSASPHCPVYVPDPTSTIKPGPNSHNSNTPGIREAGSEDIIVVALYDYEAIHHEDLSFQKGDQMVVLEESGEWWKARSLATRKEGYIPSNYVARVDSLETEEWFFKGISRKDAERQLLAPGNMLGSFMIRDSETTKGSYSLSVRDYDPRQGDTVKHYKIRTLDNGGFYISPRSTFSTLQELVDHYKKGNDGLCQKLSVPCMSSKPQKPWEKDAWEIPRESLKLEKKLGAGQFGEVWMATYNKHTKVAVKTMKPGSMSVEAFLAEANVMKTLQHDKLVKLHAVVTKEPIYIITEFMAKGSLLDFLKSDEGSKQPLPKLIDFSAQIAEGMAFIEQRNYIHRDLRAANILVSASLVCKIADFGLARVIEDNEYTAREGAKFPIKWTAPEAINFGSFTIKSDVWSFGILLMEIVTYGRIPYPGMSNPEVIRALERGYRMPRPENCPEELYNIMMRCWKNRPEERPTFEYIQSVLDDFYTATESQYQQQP
EPHB2, sequence (P29323 whole entry, looked up, the tested form may be a part): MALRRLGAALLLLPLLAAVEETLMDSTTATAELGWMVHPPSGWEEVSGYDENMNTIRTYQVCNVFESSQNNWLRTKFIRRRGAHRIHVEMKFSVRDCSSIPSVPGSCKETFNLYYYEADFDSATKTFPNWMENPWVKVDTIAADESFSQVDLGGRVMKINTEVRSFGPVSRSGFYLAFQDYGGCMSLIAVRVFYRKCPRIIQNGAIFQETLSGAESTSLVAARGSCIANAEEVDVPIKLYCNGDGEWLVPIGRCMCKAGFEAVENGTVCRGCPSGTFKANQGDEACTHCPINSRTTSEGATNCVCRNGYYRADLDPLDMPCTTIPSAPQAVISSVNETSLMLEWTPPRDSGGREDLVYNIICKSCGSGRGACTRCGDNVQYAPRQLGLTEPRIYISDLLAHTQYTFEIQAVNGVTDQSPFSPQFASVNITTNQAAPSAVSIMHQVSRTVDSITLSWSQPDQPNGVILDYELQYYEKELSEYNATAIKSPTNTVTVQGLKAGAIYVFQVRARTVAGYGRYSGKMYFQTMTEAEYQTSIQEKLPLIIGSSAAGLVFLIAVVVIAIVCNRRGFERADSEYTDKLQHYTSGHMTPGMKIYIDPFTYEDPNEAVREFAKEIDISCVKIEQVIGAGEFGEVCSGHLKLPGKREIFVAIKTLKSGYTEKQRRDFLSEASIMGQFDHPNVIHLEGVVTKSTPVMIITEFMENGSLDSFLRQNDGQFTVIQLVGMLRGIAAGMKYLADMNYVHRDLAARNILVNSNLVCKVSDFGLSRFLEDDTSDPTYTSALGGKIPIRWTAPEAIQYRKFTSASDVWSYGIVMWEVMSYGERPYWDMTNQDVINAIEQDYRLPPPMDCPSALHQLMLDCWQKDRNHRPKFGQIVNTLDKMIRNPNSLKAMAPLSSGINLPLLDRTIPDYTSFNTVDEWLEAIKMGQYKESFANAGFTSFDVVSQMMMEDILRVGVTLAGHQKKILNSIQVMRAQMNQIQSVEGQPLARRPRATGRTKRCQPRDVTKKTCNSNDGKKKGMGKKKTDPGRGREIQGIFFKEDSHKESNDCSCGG
EPHB1, sequence (P54762 whole entry, looked up): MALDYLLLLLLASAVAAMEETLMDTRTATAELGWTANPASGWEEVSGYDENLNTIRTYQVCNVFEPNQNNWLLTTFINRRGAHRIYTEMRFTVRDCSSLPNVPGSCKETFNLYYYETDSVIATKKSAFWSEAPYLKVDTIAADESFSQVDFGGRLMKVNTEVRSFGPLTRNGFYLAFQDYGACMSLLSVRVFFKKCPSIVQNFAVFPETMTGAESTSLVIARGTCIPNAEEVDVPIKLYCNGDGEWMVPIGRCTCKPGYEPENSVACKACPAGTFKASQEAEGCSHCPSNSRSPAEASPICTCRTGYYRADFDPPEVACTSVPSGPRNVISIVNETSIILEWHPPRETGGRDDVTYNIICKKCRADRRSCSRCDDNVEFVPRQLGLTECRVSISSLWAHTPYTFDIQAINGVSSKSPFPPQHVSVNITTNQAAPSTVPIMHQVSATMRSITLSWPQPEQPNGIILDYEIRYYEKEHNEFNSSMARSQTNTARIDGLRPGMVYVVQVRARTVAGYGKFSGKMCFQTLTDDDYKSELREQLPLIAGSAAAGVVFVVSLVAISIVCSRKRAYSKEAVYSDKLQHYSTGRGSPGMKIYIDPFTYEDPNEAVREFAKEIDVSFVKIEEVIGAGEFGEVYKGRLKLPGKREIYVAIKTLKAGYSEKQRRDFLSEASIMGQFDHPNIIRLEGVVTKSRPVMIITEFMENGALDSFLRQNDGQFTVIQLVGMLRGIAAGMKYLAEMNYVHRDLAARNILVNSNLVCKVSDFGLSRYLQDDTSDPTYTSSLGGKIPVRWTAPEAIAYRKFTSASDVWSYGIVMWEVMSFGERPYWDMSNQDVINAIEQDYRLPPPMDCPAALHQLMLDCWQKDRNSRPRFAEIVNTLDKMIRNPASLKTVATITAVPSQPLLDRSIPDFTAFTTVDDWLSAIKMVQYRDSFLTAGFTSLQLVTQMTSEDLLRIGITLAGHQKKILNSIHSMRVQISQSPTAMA
FGFR1, sequence (P11362 whole entry, looked up): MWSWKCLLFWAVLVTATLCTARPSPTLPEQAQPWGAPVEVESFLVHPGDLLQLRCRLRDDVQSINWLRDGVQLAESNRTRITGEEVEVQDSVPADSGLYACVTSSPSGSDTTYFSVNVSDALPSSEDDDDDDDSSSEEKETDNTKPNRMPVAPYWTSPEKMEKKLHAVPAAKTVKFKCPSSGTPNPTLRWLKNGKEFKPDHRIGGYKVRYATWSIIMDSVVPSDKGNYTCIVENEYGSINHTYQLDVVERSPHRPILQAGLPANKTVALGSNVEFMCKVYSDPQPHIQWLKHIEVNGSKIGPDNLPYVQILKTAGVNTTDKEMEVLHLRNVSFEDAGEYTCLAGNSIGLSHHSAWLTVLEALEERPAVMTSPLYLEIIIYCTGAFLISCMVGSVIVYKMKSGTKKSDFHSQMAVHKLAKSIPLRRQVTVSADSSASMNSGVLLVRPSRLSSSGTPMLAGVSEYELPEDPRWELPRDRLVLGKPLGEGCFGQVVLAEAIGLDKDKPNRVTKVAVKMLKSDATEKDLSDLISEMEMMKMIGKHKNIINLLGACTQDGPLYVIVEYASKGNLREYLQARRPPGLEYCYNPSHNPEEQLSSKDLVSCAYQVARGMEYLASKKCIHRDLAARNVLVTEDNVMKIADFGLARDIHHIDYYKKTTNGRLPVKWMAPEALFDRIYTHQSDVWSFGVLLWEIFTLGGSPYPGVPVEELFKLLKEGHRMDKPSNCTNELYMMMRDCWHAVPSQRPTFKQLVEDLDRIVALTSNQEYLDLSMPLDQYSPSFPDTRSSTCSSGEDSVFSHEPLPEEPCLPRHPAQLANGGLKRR
Grb2 SH2, sequence (P62993 whole entry, looked up): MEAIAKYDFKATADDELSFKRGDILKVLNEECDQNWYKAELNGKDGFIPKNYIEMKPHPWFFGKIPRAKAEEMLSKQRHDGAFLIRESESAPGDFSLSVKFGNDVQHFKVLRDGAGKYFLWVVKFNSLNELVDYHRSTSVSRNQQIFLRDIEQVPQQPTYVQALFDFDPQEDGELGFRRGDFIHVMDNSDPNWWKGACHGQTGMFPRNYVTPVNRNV
Fes, sequence (P07332 whole entry, looked up): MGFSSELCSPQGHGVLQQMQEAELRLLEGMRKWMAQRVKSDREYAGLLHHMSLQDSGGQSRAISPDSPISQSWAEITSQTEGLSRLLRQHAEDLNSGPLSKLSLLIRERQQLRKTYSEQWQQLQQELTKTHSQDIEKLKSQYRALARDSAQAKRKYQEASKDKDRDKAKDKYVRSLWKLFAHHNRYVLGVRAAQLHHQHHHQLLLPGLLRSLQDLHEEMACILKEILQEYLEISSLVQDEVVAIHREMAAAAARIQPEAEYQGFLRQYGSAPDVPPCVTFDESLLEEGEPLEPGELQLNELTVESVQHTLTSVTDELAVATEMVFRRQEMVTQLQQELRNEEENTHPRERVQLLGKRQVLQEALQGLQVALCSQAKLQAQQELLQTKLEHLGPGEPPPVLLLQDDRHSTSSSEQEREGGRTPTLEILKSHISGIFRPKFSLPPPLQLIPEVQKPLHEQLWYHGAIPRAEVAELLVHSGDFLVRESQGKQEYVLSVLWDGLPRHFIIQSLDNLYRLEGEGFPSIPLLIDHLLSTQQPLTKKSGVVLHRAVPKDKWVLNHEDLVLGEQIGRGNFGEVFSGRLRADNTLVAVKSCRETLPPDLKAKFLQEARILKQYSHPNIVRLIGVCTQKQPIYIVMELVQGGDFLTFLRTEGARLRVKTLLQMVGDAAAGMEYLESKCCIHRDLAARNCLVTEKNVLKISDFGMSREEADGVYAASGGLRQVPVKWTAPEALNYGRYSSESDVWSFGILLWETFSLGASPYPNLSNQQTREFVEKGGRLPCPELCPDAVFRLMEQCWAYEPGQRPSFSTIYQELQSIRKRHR
Fyn, sequence (P06241 whole entry, looked up): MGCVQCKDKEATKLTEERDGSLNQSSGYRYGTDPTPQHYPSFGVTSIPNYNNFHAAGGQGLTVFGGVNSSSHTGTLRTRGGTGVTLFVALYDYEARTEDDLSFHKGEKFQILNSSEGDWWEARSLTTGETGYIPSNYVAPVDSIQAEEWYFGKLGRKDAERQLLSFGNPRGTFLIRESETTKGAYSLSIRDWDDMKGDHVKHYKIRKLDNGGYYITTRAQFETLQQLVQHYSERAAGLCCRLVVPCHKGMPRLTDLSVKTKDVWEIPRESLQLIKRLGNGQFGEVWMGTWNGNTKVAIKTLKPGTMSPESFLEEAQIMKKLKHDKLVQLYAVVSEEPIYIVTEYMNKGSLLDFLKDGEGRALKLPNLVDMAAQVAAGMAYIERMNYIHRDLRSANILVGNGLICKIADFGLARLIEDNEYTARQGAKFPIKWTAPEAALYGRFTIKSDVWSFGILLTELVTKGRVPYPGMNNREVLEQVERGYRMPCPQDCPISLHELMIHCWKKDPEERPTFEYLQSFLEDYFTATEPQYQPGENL

Sequence | SH2 binding enrichment (c-Src SH2) | SH2 binding enrichment (SHP2-C SH2) | SH2 binding enrichment (Grb2 SH2) | phosphorylation enrichment (c-Abl (mouse)) | phosphorylation enrichment (EPHB1) | phosphorylation enrichment (MERTK) | phosphorylation enrichment (Fes) | phosphorylation enrichment (Jak2) | phosphorylation enrichment (AncSZ) | phosphorylation enrichment (Fyn) | phosphorylation enrichment (FGFR1) | phosphorylation enrichment (FGFR3) | phosphorylation enrichment (c-Src) | phosphorylation enrichment (Fer (mouse)) | phosphorylation enrichment (Hck) | phosphorylation enrichment (EPHB2)
TVFSDYLHPQY [CCPG1_Y569] | 0.541 | 0.76 | 0.88 | 0.785 | 0.727 | 0.417 | 0.944 | 1.36 | 2.34 | 0.43 | 0.699 | 0.723 | 0.498 | 0.398 | 0.457 | 0.505
TVHCDYLNIPH [TAF1L_Y1385] | 0.718 | 0.676 | 2.18 | 0.521 | 3.02 | 0.442 | 1.02 | 0.941 | 0.959 | 0.464 | 6.63 | 3.97 | 0.718 | 0.46 | 0.55 | 0.706
TVLWLYTGTRP [UGT1A1_Y337_R336L] | 1.06 | 1.3 | 1.28 | 0.532 | 0.548 | 0.318 | 1.27 | 1.06 | 1.17 | 0.68 | 0.369 | 0.742 | 0.255 | 0.527 | 0.466 | 0.487
TVLWWYTGTRP [UGT1A1_Y337_R336W] | 0.752 | 2.08 | 1.02 | 0.599 | 0.458 | 0.277 | 1.32 | 1.23 | 1.3 | 0.4 | 0.389 | 0.68 | 0.311 | 0.398 | 0.41 | 0.513
VAHAVYQAVLS [SMG1_Y549] | 1.02 | 0.828 | 1.11 | 1.14 | 9.09 | 4.22 | 0.935 | 0.666 | 0.899 | 5.92 | 0.656 | 0.591 | 4.58 | 8.18 | 8.28 | 7.85
VDGSLYETHPQ [HK1_Y417_K418E] | 0.503 | 0.661 | 0.828 | 0.541 | 1.5 | 1.18 | 0.861 | 0.653 | 1.26 | 1.13 | 0.441 | 0.607 | 0.918 | 9.06 | 2.09 | 2.37
VDGSVYELHPS [GCK_Y413_K414E] | 0.743 | 1.01 | 0.944 | 0.94 | 2.35 | 3.82 | 1.09 | 0.981 | 1.56 | 12.1 | 0.597 | 0.676 | 9.02 | 16 | 8.06 | 3.42
VDTFWYKFLKP [EPM2A_Y86_R91P] | 0.388 | 0.626 | 0.601 | 0.694 | 0.644 | 0.471 | 1.28 | 1.05 | 0.982 | 0.388 | 0.463 | 0.808 | 0.43 | 0.515 | 0.426 | 0.533
VDTRAYLTSAT [MT-CO1_Y304_F305L] | 0.439 | 0.569 | 0.774 | 0.637 | 0.589 | 0.393 | 0.763 | 0.603 | 0.671 | 0.436 | 0.518 | 0.723 | 0.414 | 0.488 | 0.377 | 0.438
VEDHDYEGGIG [TKT_Y564_Y563D] | 0.402 | 0.506 | 0.697 | 1.01 | 0.737 | 0.517 | 1.45 | 1.24 | 1.49 | 0.518 | 0.571 | 0.874 | 0.624 | 0.602 | 0.609 | 0.785
VEEDTYTMPST [PTK2_Y407_D402V] | 0.424 | 0.648 | 0.64 | 1.18 | 0.879 | 1.6 | 1.31 | 1.12 | 4.74 | 6.55 | 0.697 | 0.984 | 4.81 | 0.741 | 3.5 | 0.675
VEGIGYDFIPT [CBS_Y308] | 7.71 | 1.02 | 0.79 | 0.723 | 0.579 | 0.501 | 1.12 | 0.827 | 1.04 | 0.594 | 0.588 | 0.685 | 0.539 | 0.43 | 0.785 | 0.576
VFAPDYIAGVS [NOB1_Y366] | 0.544 | 0.755 | 0.927 | 0.844 | 0.657 | 0.547 | 1.38 | 0.934 | 1.05 | 0.585 | 0.537 | 0.807 | 0.55 | 0.647 | 0.651 | 0.646
VFGEEYEEQPR [ZMYM2_Y1033] | 0.679 | 0.971 | 1.01 | 0.709 | 0.585 | 0.386 | 1.39 | 1.23 | 1.39 | 0.534 | 0.614 | 0.731 | 0.443 | 0.514 | 0.526 | 0.767
VFPATYHPDHW [EFCAB12_Y544_YF] | 0.519 | 0.722 | 1.04 | 0.604 | 0.678 | 0.385 | 0.792 | 0.629 | 0.677 | 0.469 | 0.467 | 0.542 | 0.458 | 0.347 | 0.421 | 0.383
VGEGPYLLSDL [ABCC12_Y7_I9L] | 0.361 | 0.547 | 0.641 | 0.586 | 0.461 | 0.385 | 0.941 | 0.83 | 0.839 | 0.565 | 0.484 | 0.605 | 0.71 | 0.508 | 0.432 | 0.559
VGGRIYIDDGL [PKLR_Y218] | 0.45 | 0.778 | 0.909 | 0.727 | 0.493 | 0.383 | 0.885 | 0.91 | 0.742 | 0.459 | 0.575 | 0.539 | 0.493 | 0.681 | 0.463 | 0.431
VHNLDYFKETT [FGFR3_Y647_K650E_YF] | 0.457 | 0.668 | 1.11 | 0.598 | 0.469 | 0.425 | 0.854 | 0.723 | 0.853 | 0.437 | 0.597 | 0.614 | 0.445 | 0.438 | 0.446 | 0.5
VHNLDYFKMTT [FGFR3_Y647_K650M_YF] | 0.56 | 0.556 | 0.995 | 0.521 | 0.456 | 0.356 | 0.653 | 7.7 | 1.06 | 0.33 | 7 | 4.21 | 0.397 | 0.325 | 0.394 | 0.383
VIKDKYPKAHF [APTX_Y209_R213H_YF] | 0.766 | 1.01 | 0.999 | 0.514 | 0.285 | 0.356 | 0.493 | 0.534 | 0.523 | 0.389 | 0.38 | 0.387 | 0.369 | 0.355 | 0.284 | 0.3
VIKDKYPKARY [APTX_Y209] | 1.25 | 1.05 | 1.31 | 0.692 | 0.376 | 0.38 | 0.699 | 0.83 | 0.728 | 0.256 | 0.44 | 0.551 | 0.454 | 0.426 | 0.373 | 0.417
VILENYGADID [DNAH5_Y596_L591V] | 0.454 | 0.54 | 0.739 | 0.674 | 0.555 | 0.641 | 1.11 | 1.13 | 1.06 | 0.653 | 0.557 | 0.719 | 0.5 | 0.492 | 0.515 | 0.589
VITTLYIGFLG [KCNQ1_Y267_L262V] | 0.615 | 0.862 | 0.888 | 0.931 | 0.759 | 0.659 | 1.25 | 1.15 | 1.18 | 1.34 | 0.692 | 0.874 | 1.84 | 0.605 | 1.32 | 0.636
VKGGAYNPVTV [MCCC2_Y145_Y146N] | 0.466 | 0.558 | 0.814 | 0.609 | 0.471 | 0.471 | 0.644 | 0.781 | 0.552 | 0.456 | 0.447 | 0.469 | 0.511 | 0.526 | 0.434 | 0.372
VKPHRYRPGTV [H3-5_Y41] | 0.486 | 0.671 | 0.781 | 0.613 | 0.378 | 0.456 | 0.573 | 0.494 | 0.513 | 0.386 | 0.407 | 0.346 | 0.434 | 0.362 | 0.328 | 0.337
VLALWYYYLTN [ZDHHC23_Y127_H132N] | 1.02 | 1.22 | 1.24 | 1.05 | 1.1 | 3.86 | 1.81 | 3.09 | 1.29 | 0.611 | 8.15 | 6.91 | 1.35 | 0.766 | 0.738 | 0.851
VLPIDYYFPPQ [AR_Y552] | 1.03 | 0.85 | 0.962 | 1.06 | 3.48 | 2.47 | 1.08 | 6.26 | 4.75 | 0.687 | 15.4 | 12.6 | 1.28 | 0.694 | 0.869 | 3.36
VLTSKYRGGGG [HBA1_Y141] | 0.524 | 0.841 | 1.39 | 0.494 | 0.475 | 0.556 | 0.911 | 0.454 | 0.386 | 0.366 | 0.332 | 0.468 | 0.435 | 0.374 | 0.563 | 0.278
VMIFAYLLHRG [PTEN_Y138_C136Y_YF] | 0.837 | 1.52 | 1.59 | 0.781 | 0.447 | 0.325 | 0.828 | 0.739 | 0.807 | 0.352 | 0.383 | 0.422 | 0.415 | 0.378 | 0.406 | 0.392
